Experiments:
HEK293-T cells = assay: Luciferase expression from hypoxia-inducible promoter, normoxia vs 24 h hypoxia; type: cell-based, human
Procedure: HEK293-T are seeded at a density of 20%. Once they reached a confluence between 60 and 80%, the media is changed with DMEM (#21885-025—Thermo Scientific) supplemented with 10% FBS (Gibco, 26140). After 3 hours, the cells were transfected by a transfection mix. The transfection mix is prepared by adding DNA (2 μg per 6 well plate) and PEI 25 kDA (#23966-1—Polyscience) in a ratio of 1:3 in sterile DPBS (#14190169—ThermoFisher Scientific). After mixing, the transfection mix is incubated at room temperature for 30 minutes and then added directly to the cells. After 16 to 18 h post transfection, the media is changed to DMEM+2% FBS. […]
After transfection the cells were incubated for 24 hrs in normoxic conditions (20% oxygen). Induction of the promoters was assessed by using luciferase activity after 24 hrs in normoxia or hypoxia (5% oxygen, 10% carbon dioxide and 85% nitrogen). […]
Luciferase activity was measured using LARII (Dual Luciferase Reporter 1000 assay system, Promega, E1980).
Media was removed from the cells at the respective time point (0, 3, 5, 24 hrs after induction). […] 10 μl of supernatant was pipetted into white 96-well plate and luminescence measured by addition of 50 μl of LARII substrate.
β-galactosidase activity was measured as per manufacturer's instructions (Mammalian βGalactosidase Assay Kit, 75707/75710, Thermo Scientific) using 25 μl of lysate. […]

CHO-GS cells = assay: Luciferase expression from hypoxia-inducible promoter, transient transfection, normoxia vs 24 h hypoxia; type: cell-based, chinese hamster; details: CHO_GS suspension cell line
Procedure: 40 ml of cells were grown in a 250 ml vented Erlenmeyer flask (Sigma-Aldrich CLS431144) at 37° C., 20% O2, 8% CO2 with agitation at 100 rpm. Cells were seeded as at 300,000 cells/ml.
One day before transfection, the cells were counted using a haemocytometer and split to 500,000 cells/ml.
On the day of transfection, the cells are seeded to 1,000,000 cells/ml in 500 μl of appropriate medium (Thermofisher, CD-CHO 10743029) in a 24 well plate. 0.625 μg of DNA per well was then added to 10 μl of OptiMem medium (Thermofisher; 11058021) and incubated for 5 minutes at room temperature.
Concurrently, 0.625 μl of Freestyle Max reagent (Thermofisher, 16447100) was made up to 10 μl by addition of OptiMem and incubated for 5 minutes at room temperature. After this incubation, both mixes were added to the same tube and incubated at room temperature for 25-30 minutes. The DNA/Max reagent mix (20 μl/well) was then added directly to the cells and the cells incubated at 37 C, 8% CO2 with agitation at 100 rpm. […]
After transfection the cells were incubated for 24 hrs in normoxic conditions (20% oxygen). Induction of the promoters was assessed by using luciferase activity after 24 hrs in normoxia or hypoxia (5% oxygen, 10% carbon dioxide and 85% nitrogen). […] Luciferase activity was measured as described above.

CHO-GSK1SV cell line = assay: SEAP expression from hypoxia-inducible promoter in stably integrated cell line, normoxia vs 24 h hypoxia; type: cell-based, chinese hamster; details: normalised to cell number
Procedure: Cell suspensions of 6×10^5 cells per mL are incubated on an orbital shaker set at 8% CO2, 20% O2, 37° C., 85% relative humidity and 140 rpm overnight. 2.86×10^7 cells were centrifuged at 200 g for 3 minutes. Media is then aspirated and cell pellet resuspended in 2 mL fresh CD-CHO media to obtain a concentration of 1.43×10^7 cells per mL. 700 μL of cell suspension was added to each of two electroporation cuvettes each containing […] of linearised DNA in 100 μL of sterile TE buffer (Thermofisher, 12090015). Each cuvette was electroporated, delivering a single pulse of 300V, […] with resistance to infinity. Immediately after delivery of pulse electroplated cells were transferred to Erlenmeyer 125 mL flask containing 20 mL of CD-CHO media pre-warmed to 37° C. […] Cells are transferred to fresh CD-CHO media 24 hours after transfection and cell cultures monitored and given fresh CD-CHO media every 2-4 days. […]
Stably transfected CHO-GS cells were seeded at 500,000 cells/ml and allowed to grow for 24 hrs, at this point the cells were counted and placed under hypoxic conditions as previously described. After 24 hrs, the cell numbers and the expression of SEAP was measured.
SEAP Reporter Gene Assay, chemiluminescent (Roche, CAT #11 779 842 001) was used to measured SEAP activity as per manufacturers protocol. […] The signal is then read at 477 nm and compared to a calibration curve. […]

B1: RTV-015: hypoxia-inducible promoter, SEQ ID NO: 129; 5 HRE1 elements spaced by 40 bp spacers, synthetic minimal promoter MP1 (nucleic acid)
DNA: ACGTGCGATGATGCGTAGCTAGTAGTGATGATGCGTAGCTAGTAGTACGTGCGATGATGCGTAGCTAGTAGTGATGATGCGTAGCTAGTAGTACGTGCGATGATGCGTAGCTAGTAGTGATGATGCGTAGCTAGTAGTACGTGCGATGATGCGTAGCTAGTAGTGATGATGCGTAGCTAGTAGTACGTGCTTGGTACCATCCGGGCCGGCCGCTTAAGCGACGCCTATAAAAAATAGGTTGCATGCTAGGCCTAGCGCTGCCAGTCCATCTTCGCTAGCCTGTGCTGCGTCAGTCCAGCGCTGCGCTGCGTAACGGCCGCC
modifications: Synp-RTV-015
notes: 5 HRE1 elements spaced by 40 bp spacers, synthetic minimal promoter MP1
- Luciferase expression after 24 hours in hypoxia (vs normoxia) (HEK293-T cells; 5% oxygen): induced
- Luciferase activity in normoxia (HEK293-T cells; 20% oxygen): almost no luciferase activity
- Luciferase expression after 24 hours in hypoxia (vs normoxia) (CHO-GS cells; 5% oxygen): induced
- Luciferase activity in normoxia (CHO-GS cells; 20% oxygen): almost no luciferase activity
- SEAP activity in normoxia (CHO-GSK1SV cell line): almost no SEAP activity
- SEAP expression after 24 hours in hypoxia (vs normoxia) (CHO-GSK1SV cell line): induced

Reference: patent US20230374526A1, “FORSKOLIN-INDUCIBLE PROMOTERS AND HYPOXIA-INDUCIBLE PROMOTERS” (ASKLEPIOS BIOPHARMACEUTICAL, INC., priority 2020, published 2023)
